{
  "source": "the DeepSol protein solubility set",
  "data": [
    {"experiment": "soluble on expression in E. coli; label from the status in PepcDB or PDB records", "values": [
      {"sequence": "MTKTLPKDFIFGGATAAYQAEGATHTDGKGPVAWDKYLEDNYWYTAEPASDFYHKYPVDLELAEEYGVNGIRISIAWSRIFPTGYGEVNEKGVEFYHKLFAECHKRHVEPFVTLHHFDTPEALHSNGDFLNRENIEHFIDYAAFCFEEFPEVNYWTTFNEIGPIGDGQYLVGKFPPGIKYDLAKVFQSHHNMMVSHARAVKLYKDKGYKGEIGVVHALPTKYPYDPENPADVRAAELEDIIHNKFILDATYLGHYSDKTMEGVNHILAENGGELDLRDEDFQALDAAKDLNDFLGINYYMSDWMQAFDGETEIIHNGKGEKGSSKYQIKGVGRRVAPDYVPRTDWDWIIYPEGLYDQIMRVKNDYPNYKKIYITCNGLGYKDEFVDNTVYDDGRIDYVKQHLEVLSDAIADGANVKGYFIWSLMDVFSWSNGYEKRYGLFYVDFDTQERYPKKSAHWYKKLAETQVIE", "soluble on expression in E. coli": "soluble"},
      {"sequence": "MANHELDQLRKQVDEINLQLLHLLNKRGEIVQKIGEQKQVQGTKRFDPVREREVLDMIAENNEGPFETSTVQHIFKTIFKASLELQEDDNRKALLVSRKKKQENTIVDVKGELIGNGTQTFIMGPCAVESLEQVRQVGQAMKDQGLKLMRGGAFKPRTSPYDFQGLGVEGLQILRQVADEFDLAIISEILNPNDVEMALDYVDVIQVGARNMQNFDLLRAVGKVNKPVLLKRGLAATIDEFINAAEYIIAQGNDQIILCERGIRTYERATRNTLDISAVPILKKETHLPVVVDVTHSTGRRDLLLPTAKAALAIGADAVMAEVHPDPAVALSDSAQQMDIPEFHRFMEELKGFKNKLS", "soluble on expression in E. coli": "not soluble"},
      {"sequence": "MGKRKTKEDNASEDYDANELMIVPGEKRKKLEKSGEKSATGGKKNRNFAKEKEVAKLTKQAKRKLAAVQSRKALKQTQEELFAGLAEFQLDPSKLCQLSSSTKLSKEPEKAPVFPEKLKVFSGKTKTEAKRTQQDYYPTDDESSSEEEEEEEEGDNDIEDAGNTVEVKIEPIDLDDVDEAIDGNPETNLDQIVVKREDDEESDNEDILALPTTTVINRKKVIVERSKEIQKSRAELPIFAEEMRIVEAINENLVTVVCGETGSGKTTQIPQFLYEAGYASEGELIGITEPRRVAAIAMAQRVGVELAKPDEVSYQIRYEGTRSETTNILFMTDGVLMKEMEQDVMLKKYSVILIDEAHERSMYSDVLIGMLSRIVPLRSKTARPLRLVIMSATLRLDDFTHKKLFPLLTPKVIKVDARQFPVSVHFEKRTPDDYIASAFRKTCRIHETLPPGAILVFVTGQHEVKQLITKLKKRYPVVYETDKNGEVLVKGTKEWKEKKVEAAKSIKLEDFKEETPETEDFEDVDDGLMDGDDMNERGAAEAFDDYEEFENGDGDLSDGKVENSIGAPPADCEPLYCLPLYSLLSMGKQRRVFDETPAGMRLCVISTNVAETSLTIPGVKYVIDGGFEKRRLYDSITGVSRFAVCRISQASGDQRAGRAGRISAGHAYRLYSSAVYQDFVKFADPEILSKPADQLVLHLKSMNIVKVVNFPFPSAPDEQMLESAEKRLCRLGALSESTKNGKTEARITKLGKTLAVFPLAPSYAKFIAMADQHNLMSHAILLISLLSVREPLIPVSSLRGDTPEETKELMKNVLKERRRWCSHTGARRLGDLKVLMHAASVAEQIKYNARECEKVGLRVKALVEARKLRQQLTNIVNASCKKEHAAALDSDLPPPTDQQAQLLRQMVVASFSDRLARRVDRSVGQEEVQKGAYETTLIKGHVFIDPCSVVFTEEPEFVIYQELVQVNEKKLMTSVCAVDKEWLSRLAESYCNYGEQDKNQEPIYDPVKDMVVKTVKVTFGPLNWELPNENRSVPHDIMMYRYFALFLLDGLVFEKLKEYTPKLLAPPSTMVKSWAKLQKRTEMLLNKLIEKEVTTRSSLKEQWLKNENWLLEEYLEWVPESVHQQISLMWPPLEDHEKTIKMGRNKKY", "soluble on expression in E. coli": "not soluble"},
      {"sequence": "SLSIKTILIDDEPKAIAILKNKIERLCPDLEIVATIEKPALAFDIINELQPQLVFIDIAMPGMSGFDVLEQFKKPQFEIIFATAFDQYALDAIKQCAIGYLVKPIDNEDLVEAVTNATTNIEQKNALVKNTQLLENINQENFHKKKIVIPSTDGLEFVKVKSITHCEGVDGYTKIHFTNRKPILSSSSIGHFKKLLSHPDFYHVHKSYVTNTNHIIKYLNDGYVTLTGDVTIPVARAKRAEFLEKFRNEG", "soluble on expression in E. coli": "not soluble"},
      {"sequence": "SNAMIYPYKEKKPKIASSAFIADYVTITGDVYVGEESSIWFNTVIRGDVSPTIIGDRVNVQDQCTLHQSPQYPLILEDDVTVGHQVILHSCHIKKDALIGMGSIILDGAEIGEGAFIGAGSLVSQGKKIPPNTLAFGRPAKVIRELTAEDRKDMERIRTQYVEKGQYYKSLQK", "soluble on expression in E. coli": "soluble"},
      {"sequence": "LQKVFDNTVVQNSDIKKFNESKLIKPNLMQEHALKSLESLRNVGEEKGLIISATGTGKTILCALDVRAYSPDKFLFIVHNEGILNRAIEEFKKVFPYEDESNFGLLTGKRKDHDAKFLFATIQTLSKKENYKLFNSNHFDYIVFDEAHRIAASSYQKIFNYFKPNFLLGMTATPERTDELNIFE", "soluble on expression in E. coli": "not soluble"},
      {"sequence": "SQKLADFKLPQFFNYPPYFTLQPVRDTREKQIQLWKELILDYCKSQKIFLIGVEEDFPLFSNSAIDRSLSHEARETFLSAIVGEGRAEWLDKGHRKCLILWHRIQDWADIVLQFVRDNGLEDSVMTVEEIRSGTESLGTELQGIDRTILMRALKLLENKGKLALFKGTSADDEGVKFSV", "soluble on expression in E. coli": "soluble"},
      {"sequence": "GPGSMRAEETAPSIPPPPTISPQKTSHRTAVVPSDPSNRPTQSLRSTKELMRQRRSTVVPRITDIFALGQLHEKGERVGSRNVCPPTWKQRMSLAGQFTTFCRTHEQPINEKSCAVILMAILDVAPSTRPQHARMLRSVLRMDRTPLDMMILGLKETAARSETKQQRQQSRAIYRRCACASSGRNSMAPPMRTTVNENETARTLRRSCFSATK", "soluble on expression in E. coli": "soluble"},
      {"sequence": "MSKLCKEFSLSATVKNISRFVDEEIYYTDTEERFNIPWRMCIAKCDDEFSLGLKCEKNNWDNREWSIETDWTMKLVSHNGKSLMESKKFTFNNSNIFDGGLNTSWDLLESDYVVDDSVVVEAHVKIIKITDLPCDEDEDSKTFLLSSTVRNISSIEEGDDYYTETTIRHNIPWRMQIKRDDGFFGLFLRCEKEDCEDPGKSWSIELDYELRLVSLNGQSLTFSDSDLFIYPSGEGFQKFMRWDDMEEKYMVNGSIIIEARGKITSLEESDDESSSENEEDDSSESHSENDSSSDNLEDEFSECVINVGGQNYTVKKQ", "soluble on expression in E. coli": "not soluble"},
      {"sequence": "MSLSNSLLPPNASGLERDIEQVIVQSTDLPIRIKDLWNPYSCHLSLLPWLAWALSVDEWDDRWPEHIKRQVVQDSFDVHRFKGTPYAVQKALDSLNIKTHLREWWEPDGSQEPGTMTVVALINENLTDDDNGLITEAMLEQVTRVIHTAKRGVIHFDVELGISLDETLGFSGAIGPSIAEIDFSSDFLPIVPEKGSADMAFSAALYGIGSADFLADMSGVVPDEGHHHHHH", "soluble on expression in E. coli": "not soluble"},
      {"sequence": "GPGSMPVEQLEEENKTLRTKVRVLEEELKHRNAECVRLRDELQLLSGVMRENDSQRQLIDTLREELEFSRKSHAEAVEALNVGEKQRRNEEHRQRMARVQLQLSTSGMDVKTGTSSQAGGAVLPVVTGGVVPTSSGVEIICKSSNISSLGFAPVQRPPDFAGSAYGQFYRGVANSADLVEEEDEVSRLMAMAKDGAMLDIKHAEVTDGEENELLERYKALKLWKPN", "soluble on expression in E. coli": "not soluble"},
      {"sequence": "MSLAMLMLLAACSERSADWSLYNVKGHLPDLKFSLPGAHGKTVSSDDLKGKTVLLFFGYASCPDVCPTTMAQLTAVLQQLGEQARDVRILFVSVDPHRDTPDILQAYVNAFNNNAIGVTGNEKQIADLARRYRLAYQIEKPKPGDDADIYDVTHSRGVYIFDNQGKARLLASDTDTIDTMVKDLRQLIAQTQEGHHHHHH", "soluble on expression in E. coli": "soluble"},
      {"sequence": "MYINNKLTEDLLLGEIYYLISKTYFFIENIQKAINFAFLAKSEFEKVYNKKAYAKSLELLAEEHAKVGDLESAIAYSKQSLNVYKELEQLDKISSIEDSLGKLFFEFDNIEESFEHYNRAIKIREENTDSKLLDTLFNLCENHIKTKNMNKCIEILNEIKNKLNVSDVNRLIEYKILTFRIEVLQNNIKEAENILLDTLEIAKRNDMKKKEADISIRLGKFYLELKRDYEAAKYLDKGINNLKNLGVIKSLEHHHHHH", "soluble on expression in E. coli": "not soluble"},
      {"sequence": "RLHSDNVYLIENNVFGTTCARVGCMPSKLLIAAAEARHHALHTDPFGVHLDKDSIVVNGEEVMQRVKSERDRFVGFVVADVEEWPADKRIMGSAKFIDEHTVQIDEHTQITAKSFVIATGSRPVILPQWQSLGNRLIINDDVFSWDTLPKRVAVFGPGVIGLELGQALHRLGVKVE", "soluble on expression in E. coli": "not soluble"},
      {"sequence": "MTKFVAKKAILLLSLLLLGTAESKPLDAEQQHIDDQHVRKERQLKMAGSADPDVKMVANVTPATGSQPMSMTMGVPMNQMALSSVGGQLVRYPNYPGLIYPGLAPAPGLNGVPGLQTNIANNYPSYPDPNLTGSVPGFNPFGSFGYPGVAPMYGNSLMYPNPQLPNGFVPNPAVDNFQSLNNIVNMANVQGLAGGSSGIYPAPQGFGGVSPGLYPAPQGFGGANPGLYPAPQVNMQGLYPPSGGFLERMNMQGYAPGFLEHHHHHH", "soluble on expression in E. coli": "not soluble"},
      {"sequence": "MGSDKIHHHHHHMSIPQQTDALDQAPSTAGCRVPYRVFTDRQYYDREQENIFKGNCWSFVGLEAEVPQAGDFKSTFVGETPVILTRDSDGSLHVVVNRCAHRGALVCREMRGNRASLECVYHQWAYDLKGNLIGVPFRRGLKGQGGMPGDFDMSQHNLRQLRTESVGGLVFASFSETVESCRDFLGPIVVEQIERIMCKPITVLGDQRQRIRGNWKLYAENTRDPYHASLLHLFHNTFGLYRSTQTGKALMDANKRHSLLYSIAASNDDAADKQAYGDSRTFDTEFKLQDMSLLKGRQEFADNVTLVILAVYPNLVLQQIQNTLAVRQTVTYGPDEFELVWTHFGYQDDDAEMQAIRLKQANLIGPAGLISMEDGEAVEIVQNAIVGEASATSYIAMGGGRAEDADHLVTEGAIIGFWDNYREMVGFEVEPT", "soluble on expression in E. coli": "not soluble"},
      {"sequence": "RPQISIRVDVPKEEKGIEAMICLDISNSMLCEDVKPNRLSFAKQVLGKLFDGLQNDKVGLVVFAGNAYTQIPITTDLSAAKQFLADISPNMVTAQGTAIGAAIELASKSFSDNKEIGKTIIVLTDGENHEGNAIEAAQQAHEAGIRVNVIGLGTALGAPIPIEEGYLKDETGNPVVTKFDEKMCRDIASAGEGTFFSGQSASALVRAIESQLDKLPKAVLSSSSSSGYREV", "soluble on expression in E. coli": "not soluble"},
      {"sequence": "MGSDKIHHHHHHVIRSLWISKTGLDAQQTQMDVIANNLANVSTNGFKRSRAVFEDLLYQTLRQPGAQSSQQTQLPSGLQLGTGVRPVATEHIFTQGNLQQTGNSKDVAIQGQGFFQVLRPDGSTAYTRDGSFQTDFEGQLVTSSGYHVQPAITIPPNAQSITVGRDGIVSVTTQDSTTPVQVGNLQLATFINPAGLQSVGENLYVETASSGTPNVTNPGTDGAGLLNQGYVETSNVNVVEELVNMIQTQRAYEINSKSVQTSDQMLQRLTQL", "soluble on expression in E. coli": "not soluble"},
      {"sequence": "MGSDKIHHHHHHMTLSITSNFDAGAIDVVSCERADAIRLRVRGDNRSEFAQWFYFRLTGARGERCVMTFENANDCAYPAGWRDYRAVASYDRVNWFRVPTSYDGQMLTIDHTPEFDSIHYAYFEPYSEERHSEFLGAVQQMPQASVVELGRTVEGRPMSLVVLGTPDEAGAAKKKVWIIARQHPGESMAEWFIEGLVKRLVGWGDWSGDPVARKLYDHATFYIVPNMNPDGSVHGNLRTNAAGANLNREWMEPDAERSPEVLVVRDAIHAIGCDLFFDIHGDEDLPYVFAAGSEMLPGFTEQQRVEQSAFIDSFKRASPDFQDEHGYPPGKYREDAFKLASKYIGHRFGCLSLTLEMPFKDNANLPDEHIGWNGARSASLGAAMLGAILEHVRAFA", "soluble on expression in E. coli": "not soluble"},
      {"sequence": "MYMKHIENGTRIEGEYIKNKVIQYNMSILTDEVKQPMEEVSLVVKNEEGKIFGGVTGTMYFYHLHIDFLWVDESVRHDGYGSQLLHEIEGIAKEKGCRLILLDSFSFQAPEFYKKHGYREYGVVEDHPKGHSQHFFEKRL", "soluble on expression in E. coli": "soluble"}
    ]}
  ]
}
